From publication PMC7918451

Legend:
[1] = target: T1, Interleukin-6 (IL-6) ((aptamer stated to be specific to mouse IL-6)) (UniProt P08505); test: GFET (graphene field-effect transistor), Hill-Langmuir fit, n = 0.3; details: pH ~3.64, 2 mM MgCl2; 5' amine coupled to 1-pyrenebutyric acid NHS ester (5' pyrene); 0.01x PBS with 2 mM MgCl2, pH ~7.4 (or adjusted to ~3.64), 10 min exposure per concentration, temperature not stated; aptamer immobilized on graphene
T1 sequence: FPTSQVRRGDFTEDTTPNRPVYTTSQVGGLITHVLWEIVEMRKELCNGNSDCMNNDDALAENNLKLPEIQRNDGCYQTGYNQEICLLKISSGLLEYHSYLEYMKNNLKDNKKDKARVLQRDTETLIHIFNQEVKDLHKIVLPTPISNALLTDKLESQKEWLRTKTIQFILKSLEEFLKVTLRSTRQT

[2] = target: T1, Interleukin-6 (IL-6) ((aptamer stated to be specific to mouse IL-6)); test: manufacturer value; details: 5' amine; 0.01x PBS with 2 mM MgCl2, pH ~7.4 (or adjusted to ~3.64), 10 min exposure per concentration, temperature not stated; aptamer immobilized on graphene; cited from earlier work

Row | Substance | Kd [1] | Kd [2]
1 | IL-6 aptamer ATW0077 (Base Pair Biotechnologies), pyrene-tagged (PTDA) | 3.4 nM | –
2 | IL-6 aptamer ATW0077, as supplied (manufacturer Kd) | – | 5.4 nM
